Assays:
[1] = molecular target: full-length recombinant H7 HA (A/Netherlands/219/2003) on PER.C6 cells (influenza A virus (H7N7)); assay: FACS, IgG 5 µg/ml, HA-expressing PER.C6 cells; untransfected MFI 4
[2] = molecular target: full-length recombinant H1 HA (A/New Caledonia/20/1999) on PER.C6 cells (influenza A virus (H1N1)); assay: as above
[3] = molecular target: full-length recombinant H3 HA (A/Wisconsin/67/2005) on PER.C6 cells (influenza A virus (H3N2)); assay: as above
[4] = molecular target: H3 HA antigen (A/Brisbane/10/2007) (influenza A virus (H3)); assay: BLI (Octet RED), biotinylated HA on streptavidin sensor, 1:1 model
[5] = molecular target: recombinant H3 HA (A/Wisconsin/67/2005) (influenza A virus (H3N2)); assay: as above

Row | Substance | MFI [1] [MFI] | MFI [2] [MFI] | MFI [3] [MFI] | Kd [4] [nM] | koff [4] [s⁻¹] | kon [4] [M⁻¹ s⁻¹] | Kd [5] [nM] | koff [5] [s⁻¹] | kon [5] [M⁻¹ s⁻¹]
1 | CR8020 (antibody) | 140 | 3 | 657 | – | – | – | – | – | –
2 | Fab fragment of CR8043 | – | – | – | 0.3 | 8.69e-05 | 312000 | 0.3 | 9.86e-05 | 408000
3 | CR8043 (antibody) | 11 | 4 | 646 | – | – | – | – | – | –
4 | Fab fragment of CR8020 | – | – | – | 8.9 | 0.00143 | 181000 | 11.2 | 0.00208 | 203000
